The source of these data is publication PMC4423232.

Test [1] deals with optimized version of the ectodomain of human Fcγ receptor I (hFcγRI, CD64), residues Gln16 to Val289, hexa-histidine tag at the C-terminus (human) (UniProt P12314). Description: SPR; temperature dependence of KD, van't Hoff approximation; hFcγRI on the surface, Fc or IgG1 as analyte.
Test [2] has the same target. Put plainly: SPR; method #1: Biacore T200, hFcγRI captured by its C-terminal hexa-histidine on a Ni-NTA chip (~550 RU for Fc, ~220 RU for IgG), Fc or IgG1 as analyte, PBS with 0.005% Tween-20, 25 °C, 1:1 Langmuir global fit, KD from the rate constants.

In test [1], “Fc fragment of the humanized IgG1 monoclonal antibody rituximab (from UniProt P01857 107-328) (domain or fragment)” displayed a dH (van't Hoff) of -26.8 kcal/mol. In test [2], this substance yielded a Kd of 4.2 nM, a koff of 0.00011 s⁻¹ and an on-rate (kon) of 27000 M⁻¹ s⁻¹.
